We go through 1 substance from article PMC9608704.

The experiment concerns the target HLA-B*2704 heavy chain (human). Briefly: non-reducing SDS-PAGE with Western blot; cell surface proteins of C1R-B*2704 or C1R-B*2704 C67S cells biotinylated, extracted in the presence of iodoacetamide, precipitated by avidin-agarose beads, separated by non-reducing SDS-PAGE and blotted with the BH2 antibody; disulfide-linked oligomers judged by mobility. Background: Immunoblotting shows a protein as a band on a membrane.

Where “and” joins values, the source holds several entries; their conditions need not be identical. Equal values may be shown once.

What is called stoichiometry N is the number of molecules, sites or subunits per partner or assembly. As to “HLA-B*2704 heavy chain (natural protein)”, the stoichiometry N was 2 and 4.
